Legend:
[1] = human, in vivo; cited from earlier work
Excerpt: Peptide receptor radionuclide therapy (PRRT) with ^177Lu-DOTATATE or ^177Lu-oxodotreotide, a somatostatin analog radiolabeled with ^177Lu, is a recognized therapeutic option for metastatic or symptomatic patients with midgut WHO grade I-II neuroendocrine tumors. […] The standard treatment consists in four intravenous injections of 7.4 GBq of ^177Lu-DOTATATE administered every 8 weeks. This the ...

[2] = in vivo; cited from earlier work
Excerpt: Table 1 Literature review of absorbed dose in bone marrow for ^177Lu-PRRT | column: Bone marrow absorbed dose (Gy/GBq) || Recently, the EANM dosimetry committee published its recommendations for the dosimetry of ^177Lu-labeled somatostatin-receptor and PSMA-targeting ligands. For ^177Lu-PRRT, the median value for the red marrow absorbed dose across all the studies is 50 mGy/GBq. The total-body time activity curve (TAC) is generally biphasic, as is the case for the blood TAC. The recommendation for dosimetry is to measure the activity concentration in the blood even if sequential planar or SPECT/CT whole-body imaging is also possible. || The median absorbed dose ranged from 15.3 to 63.9 mGy/GBq depending on the method used, which is coherent with the median literature value of 50 mGy/GBq (range 2 to 150 mGy/GBq) (see Table 1). With the blood-based method, the tri-exponential model gave a higher median absorbed dose than the bi-exponential model, which also gave a higher median dose than the mono-exponential model. The tri-exponential model was not always accurate and sometimes gave an infinite AUC, that is maybe due to the low number of points especially for the image-based method where we only have 4 points.

[3] = set-up: species or system patients; conditions: in vivo
Experimental: A retrospective study was conducted on 59 patients treated in our institution for neuroendocrine tumors (NET) with ^177Lu-DOTATATE (Lutathera ®) between 2019 and 2021. In a standard study, patients received 4 cycles of ^177Lu-DOTATATE at the recommended activity of 7400 MBq during a 30-min intravenous perfusion. The interval between each cycle was eight weeks. The study was declared to the Health Data Hub (number: F20230102114415).
Six to nine blood samples were collected at 0.5, 1, 2, 4, 8, 16, 24, 72 and 144 h post-injection in each patient. Blood was collected in the arm contralateral to that in which ^177Lu-DOTATATE was injected. Blood samples were centrifuged at 1000xg for 10 min at ambient temperature. Radioactivity was measured in 1 ml aliquots of plasma using a WIZARD^2™ 2480-0010 Gamma Counter (Perkin Elmer, MS, USA). A calibration curve with ^177Lu-DOTATATE was established to normalize the data obtained with the gamma counter. Radioactivity-time data were expressed in MBq/L after correction for radioactive decay between the time of the sampling and the measurement according to the equation: C(t)corr=C(t)measured×e^-Ln2/T1/2,177Lu(tmeasured-t) where C(t)corr is ^177Lu-Dotatate concentration at time t corrected for radioactive decay, C(t)measured is the ^177Lu-Dotatate concentration measured at time tmeasured, T1/2,^177Lu is the half-time disintegration of ^177Lu and T0 is the time of ^177Lu-Dotatate injection.
For the blood-based method, the activity concentration was fitted by a mono-, bi- or tri- exponential curve to infinity to estimate the area under the curve (AUC) using an in-house Python program (Python 3.10, numpy and matplotlib libraries). […]
To estimate the influence of the late timepoints for the blood-based method, we estimated the absorbed dose with only the timepoints before 24 h post-injection. For the image-based method, we kept only three timepoints by deleting the last one and compared the absorbed dose to the one calculated with all the timepoints.

C[C@@H](O)[C@H](NC(=O)[C@@H]1CSSC[C@H](NC(=O)[C@@H](Cc2ccccc2)NC(=O)CN2CCN(CC(=O)O)CCN(CC(=O)O)CCN(CC(=O)O)CC2)C(=O)N[C@@H](Cc2ccc(O)cc2)C(=O)N[C@H](Cc2c[nH]c3ccccc23)C(=O)N[C@@H](CCCCN)C(=O)N[C@@H]([C@@H](C)O)C(=O)N1)C(=O)O [^177Lu-DOTATATE, metal not drawn]
Grade 3 or 4 lymphopenia [1]: 9% | Grade 3 or 4 thrombopenia [1]: 2% | Leukemia, treated patients [1]: about 1% | Myelodysplastic syndrome (MDS), treated patients [1]: about 2% | Median value for the red marrow absorbed dose across all the studies [2]: 50 mGy/GBq | Range of literature red marrow absorbed dose [2]: 2-150 mGy/GBq | Effective half-life, first phase [3]: 12 to 348 min | Effective half-life, second phase [3]: 96 to 2080 min | Median absorbed dose (bone marrow), range over methods and models [3]: 15.3-63.9 mGy/GBq

— paper PMC10987460, “Impact of different models based on blood samples and images for bone marrow dosimetry after ^177Lu-labeled somatostatin-receptor therapy” (EJNMMI Physics, 2024)
